Results taken from paper PMC10267100 (Communications Biology, 2023).
Square brackets hold non-standard residues; d marks the D form. Ends that are not written are not given here. pY = N[C@@H](Cc1ccc(OP(=O)(O)O)cc1)C(=O)O

T1: PTP1B (Homo sapiens, UniProt P18031)
T1 construct: human PTP1B phosphatase domain (residues 2–321) with a GST tag; GST (cleaved yes); made in house; host or cells: E. coli BL21 (DE3)
T1 sequence (P18031 2-321): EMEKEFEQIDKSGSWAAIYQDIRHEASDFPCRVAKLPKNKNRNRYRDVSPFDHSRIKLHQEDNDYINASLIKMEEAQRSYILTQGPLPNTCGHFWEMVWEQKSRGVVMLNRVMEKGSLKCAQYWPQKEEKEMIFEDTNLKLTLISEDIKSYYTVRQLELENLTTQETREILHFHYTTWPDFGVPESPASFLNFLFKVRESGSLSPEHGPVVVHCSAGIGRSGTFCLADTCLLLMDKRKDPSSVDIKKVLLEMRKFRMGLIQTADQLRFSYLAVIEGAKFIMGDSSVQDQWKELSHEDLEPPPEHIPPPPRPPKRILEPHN

T2: IRK pYpY activation loop peptide
T2 peptide: ETD[pY][pY]RKGGKGL

T3: PTP1B phosphatase domain (residues 2-321) D181A/Q262A (human, UniProt P18031 2-321, D181A | Q262A)
T3 construct: Protein tyrosine phosphatase 1B, human, phosphatase domain, residues 2-321, D181A/Q262A; pPROEX vector; no cleavage of the His tag is told; also called PTP1B D181A/Q262A; PTP1B D/Q; source: E. coli BL21 (DE3), purified (nickel resin, size exclusion)
T3 sequence (looked up): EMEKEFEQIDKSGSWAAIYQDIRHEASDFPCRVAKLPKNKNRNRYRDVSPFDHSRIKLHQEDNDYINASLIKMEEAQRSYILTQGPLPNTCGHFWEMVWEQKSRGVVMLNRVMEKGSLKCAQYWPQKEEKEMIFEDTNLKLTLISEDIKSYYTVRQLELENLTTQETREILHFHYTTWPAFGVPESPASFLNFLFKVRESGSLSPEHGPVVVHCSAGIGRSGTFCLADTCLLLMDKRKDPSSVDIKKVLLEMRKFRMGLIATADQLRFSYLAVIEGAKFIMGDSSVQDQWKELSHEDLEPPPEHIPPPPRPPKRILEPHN

T4: PTP1B phosphatase domain (residues 2-321) C215A/D181A/Q262A triple mutant (human, UniProt P18031 2-321, D181A | C215A | Q262A)
T4 construct: Protein tyrosine phosphatase 1B, human, phosphatase domain, residues 2-321, D181A/C215A/Q262A; pPROEX vector; no cleavage of the His tag is told; also called D181A/Q262A/C215A; PTP1B D/Q/C; source: E. coli BL21 (DE3), purified (nickel resin, size exclusion)
T4 sequence (looked up): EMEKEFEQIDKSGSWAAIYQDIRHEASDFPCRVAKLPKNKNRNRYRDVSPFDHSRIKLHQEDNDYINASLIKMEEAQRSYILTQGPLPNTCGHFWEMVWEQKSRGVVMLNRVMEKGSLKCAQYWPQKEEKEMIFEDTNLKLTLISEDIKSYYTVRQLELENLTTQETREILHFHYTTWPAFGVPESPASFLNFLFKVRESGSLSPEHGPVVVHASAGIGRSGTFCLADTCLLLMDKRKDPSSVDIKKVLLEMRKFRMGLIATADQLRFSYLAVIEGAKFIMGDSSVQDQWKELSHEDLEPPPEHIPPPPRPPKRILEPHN

B1: JAK2 pYpY activation loop peptide (peptide)
peptide: VLPQDKE[pY][pY]KVKEPGE
notes: printed as VLPQDKE[pY][pY]KVKEPGE; In the crystal with PTP1B D181A/Q262A the peptide is seen as the dephosphorylated product; source: synthetic peptide

Tests used:
PTP1B [1] = molecular target: T1, PTP1B; test: 1H NMR dephosphorylation of activation loop peptides; type: biochemical; settings: bisphosphorylated peptide as substrate, WT PTP1B, Fig. 6c
From the text: A Michaelis-Menten analysis of dephosphorylation of JAK2 and IRK activation loop peptides indicated an enhanced dephosphorylation rate for both peptides when in the bisphosphorylated state (Fig. 6a), consistent with previous data on IRK[7]. […] Using ^1H NMR we then measured the dephosphorylation of individual YpY, pYY and YY peptides over time (Supplementary Fig. S5), and similarly, observed an overall preference for bisphosphorylated peptides, however JAK2 YpY was dephosphorylated at a similar rate as the pYpY peptides, highlighting again the preference for this residue by PTP1B (Fig. 6).
Fig. 6 PTP1B preferentially targets different phosphotyrosines in the JAK2 and IRK activation loops. a Michaelis–Menten analysis of PTP1B-induced dephosphorylation via the malachite green assay. Data are from three independent experiments, error bars are SEM. b Dephosphorylation of mono- and bisphosphorylated peptides over time as measured by 1H NMR to determine reaction rate (shown as s-1). c 1H NMR was used to track the dephosphorylation of JAK2 and IRK bisphosphorylated activation loop peptides over time. […]
(§1) Specifically, we measured the appearance of the individual YpY, pYY and YY products over time (Supplementary Fig. S6). […]
0.5 mg of JAK2 or IRK pYpY, pYY and YpY peptides were dissolved in 500 μl of 20 mM Tris (pH 7.5), 2 mM TCEP, and 100 mM NaCl. […] Data was analyzed using TopSpin v3.2 (Bruker). […]

PTP1B R47A = test: 1H NMR dephosphorylation of bisphosphorylated activation loop peptides; type: biochemical, human; settings: bisphosphorylated peptide as substrate, PTP1B R47A mutant
From the text: Fig. 6 PTP1B preferentially targets different phosphotyrosines in the JAK2 and IRK activation loops. a Michaelis–Menten analysis of PTP1B-induced dephosphorylation via the malachite green assay. Data are from three independent experiments, error bars are SEM. b Dephosphorylation of mono- and bisphosphorylated peptides over time as measured by 1H NMR to determine reaction rate (shown as s-1). c 1H NMR was used to track the dephosphorylation of JAK2 and IRK bisphosphorylated activation loop peptides over time. […] Arg47 has an effect on the preference for dephosphorylation of the second phosphotyrosine in JAK2, with loss of selectivity for dephosphorylation of either phosphotyrosine in the R47A PTP1B mutant. […]
as §1
0.5 mg of JAK2 or IRK pYpY, pYY and YpY peptides were dissolved in 500 μl of 20 mM Tris (pH 7.5), 2 mM TCEP, and 100 mM NaCl. […] To start the dephosphorylation reaction, 2 nM PTP1B was added to each sample and multiple 1H NMR spectra were recorded over the course of 1 h. Data was analyzed using TopSpin v3.2 (Bruker). The concentration of each species of ALP (pYpY, pYY, or YpY) in the reaction was calculated by integrating the area under the peak and normalising these values to the starting peptide concentration.

PTP1B [2] = settings: peptide with Phe in the −1 position; cited from earlier work
[3] = molecular target: B1
[4] = molecular target: B1; test: cell-based or functional assay
[5] = molecular target: T2, IRK pYpY activation loop peptide; test: cell-based or functional assay
[6] = molecular target: T3, PTP1B phosphatase domain (residues …); test: crystal structure; PTP1B D181A/Q262A co-crystallised with a 2-fold excess of bisphosphorylated peptide; the tyrosyl-peptide product and free phosphate are seen in the active site; settings: both partners purified
[7] = molecular target: T4, PTP1B phosphatase domain (residues …); test: crystal structure; catalytically dead PTP1B D181A/Q262A/C215A co-crystallised with a 2-fold excess of phosphopeptide; substrate-bound; settings: both partners purified

binding result [6] | binding result [7] | Molecule | also measured
– | – | ETD[pY][pY]RKGGKGL [IRK pYpY] | preference for dephosphorylation of the first pTyr over the second (PTP1B [1]; 1H NMR tracking of products): ~ 1.6 fold
– | – | VLPQDKE[pY][pY]KVKEPGE [JAK2 pYpY] | preference for dephosphorylation of the second pTyr over the first (PTP1B R47A): 1.3 fold; rate of dephosphorylation of the second pTyr relative to the first (PTP1B [1]; 1H NMR tracking of pYY and YpY products): ~ 3 fold
– | – | ELEFpYMDYE [peptide of PDB 1EEO with Phe in the −1 position, literature PTP1B substrate] | substrate quality for PTP1B (PTP1B [2]): potent PTP1B substrate
– | – | PTP1B phosphatase domain (residues 2-321) R47A (enzyme) EMEKEFEQIDKSGSWAAIYQDIRHEASDFPCRVAKLPKNKNRNRYADVSPFDHSRIKLHQEDNDYINASLIKMEEAQRSYILTQGPLPNTCGHFWEMVWEQKSRGVVMLNRVMEKGSLKCAQYWPQKEEKEMIFEDTNLKLTLISEDIKSYYTVRQLELENLTTQETREILHFHYTTWPDFGVPESPASFLNFLFKVRESGSLSPEHGPVVVHCSAGIGRSGTFCLADTCLLLMDKRKDPSSVDIKKVLLEMRKFRMGLIQTADQLRFSYLAVIEGAKFIMGDSSVQDQWKELSHEDLEPPPEHIPPPPRPPKRILEPHN | preference for dephosphorylation of the second pTyr against the first in the bisphosphorylated peptide, followed by 1H NMR [3]: 1.3 fold
– | – | human PTP1B phosphatase domain (residues 2-321), wild type (enzyme, UniProt P18031 2-321, looked up) EMEKEFEQIDKSGSWAAIYQDIRHEASDFPCRVAKLPKNKNRNRYRDVSPFDHSRIKLHQEDNDYINASLIKMEEAQRSYILTQGPLPNTCGHFWEMVWEQKSRGVVMLNRVMEKGSLKCAQYWPQKEEKEMIFEDTNLKLTLISEDIKSYYTVRQLELENLTTQETREILHFHYTTWPDFGVPESPASFLNFLFKVRESGSLSPEHGPVVVHCSAGIGRSGTFCLADTCLLLMDKRKDPSSVDIKKVLLEMRKFRMGLIQTADQLRFSYLAVIEGAKFIMGDSSVQDQWKELSHEDLEPPPEHIPPPPRPPKRILEPHN | rate of dephosphorylation of the second pTyr against the first in the bisphosphorylated peptide, followed by 1H NMR [4]: ~3 fold; preference for dephosphorylation of the first pTyr against the second in the bisphosphorylated peptide, followed by 1H NMR [5]: ~1.6 fold
binds | – | AIETDKE[pY][pY]TVKDDLD (printed as AIETDKE[pY][pY]TVKDDLD; In the crystal with PTP1B D181A/Q262A the peptide is seen as the dephosphorylated product; also called JAK1 peptide; source: synthetic peptide) [JAK1 pYpY activation loop peptide] | –
– | binds | VLPQDKE[pY]YKVKEPGE (source: synthetic peptide) [JAK2 pYY activation loop peptide] | –
binds | – | LLPLDKD[pY][pY]VVREPGQ (printed as LLPLDKD[pY][pY]VVREPGQ; In the crystal with PTP1B D181A/Q262A the peptide is seen as the dephosphorylated product; also called JAK3 peptide; source: synthetic peptide) [JAK3 pYpY activation loop peptide] | –
binds | binds | B1 | –
– | binds | VLPQDKEY[pY]KVKEPGE (source: synthetic peptide) [JAK2 YpY activation loop peptide] | –
binds | binds | VPEGHE[pY][pY]RVREDGD (printed as VPEGHE[pY][pY]RVREDGD; In the crystal with PTP1B D181A/Q262A the peptide is seen as the dephosphorylated product; source: synthetic peptide) [TYK2 pYpY activation loop peptide] | –
